The results in this text go back to patent US20260250371A1 (ULTRAGENYX PHARMACEUTICAL, published 2026).

Test [1] addresses T1, recombinant human FGF23 (R179Q) (human, UniProt Q9GZV9 25-251).
T1 construct: also called rhFGF23(R179Q); hFGF23(R179Q)
T1 sequence (looked up): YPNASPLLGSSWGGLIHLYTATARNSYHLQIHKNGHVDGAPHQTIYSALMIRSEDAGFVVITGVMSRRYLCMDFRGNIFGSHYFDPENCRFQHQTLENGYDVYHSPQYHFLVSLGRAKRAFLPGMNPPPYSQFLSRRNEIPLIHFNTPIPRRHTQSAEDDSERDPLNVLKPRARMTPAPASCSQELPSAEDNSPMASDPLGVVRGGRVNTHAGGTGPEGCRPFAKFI
The test is described as follows: SPR, antibody captured on hIgG chip, human FGF23 analyte.

Test [2] has as its target T1, recombinant human FGF23 (R179Q). Put plainly: SPR, antibody captured on hIgG chip, rhFGF23(R179Q) analyte. A general note: In SPR one partner is held on a chip, and binding of the other changes the refractive index at the surface.
For test [3] the target is unchanged. The description is as above. This is another data set of the same source.
Test [4] addresses T2, cynomolgus monkey (Macaca fascicularis) FGF23 (R179Q) (cynomolgus monkey (Macaca fascicularis), UniProt Q9GZV9 25-251 (human entry), limits assumed).
T2 construct: also called cynoFGF23; cynoFGF23(R179Q)
T2 chain: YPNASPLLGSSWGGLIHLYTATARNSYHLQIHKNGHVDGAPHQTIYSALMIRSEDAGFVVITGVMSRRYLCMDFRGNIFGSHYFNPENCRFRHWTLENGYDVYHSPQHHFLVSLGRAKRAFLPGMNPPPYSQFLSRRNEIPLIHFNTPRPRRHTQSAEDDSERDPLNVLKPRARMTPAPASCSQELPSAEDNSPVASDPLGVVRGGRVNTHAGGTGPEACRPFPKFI
The test is described as follows: SPR, antibody captured on hIgG chip, cynoFGF23(R179Q) analyte, single cycle kinetics. The protocol:
Binding kinetics of 13 antibody variants shown in Table 19 were characterized against cynomolgus monkey (Macaca fascicularis) FGF23 (R179Q) (i.e., “cynoFGF23”) (SEQ ID NO: 372). Antibody variants were expressed at small scale (3 ml) and screened by SPR analysis at a single concentration (100 nM). Experimental setup of SPR analysis for CRC: SPR device—8K+; chip preparation—CM5 hIgG chip: channels—1-8; immobilization concentration—1.5 ug/ml; immobilization method—capture; flow rate—5 μl/min; contact time—60 s; running buffer—1×HBS-EP+pH 7.4; temperature—20° C.: flow rate—50 μl/min; association time—120 s; dissociation time—1800 s; antigen—cynoFGF23(R179Q): top concentration—0.1 μM, 9-pt 3-fold Single Cycle Kinetics.

Where “and” joins values, the source holds several entries; their conditions need not be identical. Identical values can stand only once. Like-named read-outs stand apart in the source and are kept apart here.

B1: UGX182 (antibody, human IgG1, kappa, V domains shown)
VH: QVQLVQSGAEVKKPGASVKVSCKASGYTFTNHYMHWVRQAPGQGLEWMGIINPISGSTDNAQKFQGRVTMTRDTSTSTVYMELSSLRSEDTAVYYCARDIIDAFDFWGQGTMVTVSS
VL: AIQLTQSPSSLSASVGDRVTITCRASQGISSALVWYQQKPGKAPKLLIYDASSLESGVPSRFSGSGSGTDFTLTISSLQPEDFATYYCQQFNDYFTFGPGTKVDIKR
notes: also called HC:S59D, HC:V101I; S59D/V101I
For B1, in test [1], the “KD ratio (variant antibody KD/burosumab KD)” value (shortened to “KD ratio”) stood at 2 and the Kd – broadly, the constant that tells how readily two partners part at equilibrium – was 9.47 pM. For the same molecule, in test [2], the Kd stood at 9.47 pM; the “Ratio (variant antibody KD/burosumab KD)” value stood at 2; the “SA (surface activity)” value is 100%; the koff (in general, the first-order rate constant of dissociation) amounted to 0.000141 s⁻¹. Besides, the kon (commonly the second-order rate constant of association) in test [2] came out at 1.49e+07 M⁻¹ s⁻¹. Besides, in test [3], the Kd came out at 9.47 pM, the “Ratio (variant antibody KD/burosumab KD)” value was determined as 2, the “SA (surface activity)” value turned out to be 100% and the koff was found to be 0.000141 s⁻¹. Also, the kon in test [3] worked out at 1.49e+07 M⁻¹ s⁻¹. In test [4], the “KD ratio” value is 1 and binding was characterised by a dissociation constant (Kd) of 16.3 pM.

B2: UGX144 (antibody, human IgG1, kappa, V domains shown)
VH: QVQLVQSGAEVKKPGASVKVSCKASGYTFTNHYMHWVRQAPGQGLEWMGIINPISGSTSNAQKFQGRVTMTRDTSTSTVYMELSSLRSEDTAVYYCARDIVDAFDFWGQGTMVTVSS
VL: AIQLTQSPSSLSASVGDRVTITCRASQGISSALVWYQQKPGKAPKLLIYDASSLESGVPSRFSGSGSGTDFTLTISSLQPEDFATYYCQQFNDDFTFGPGTKVDIKR
notes: also called LC:Y94D; Y94D
As for B2, in test [1], the “KD ratio” value turned out to be 4 and the Kd was 5.77 pM. In test [2], the dissociation constant Kd was 6.58 pM and 5.77 pM; the koff is 7.03e-05 s⁻¹ and 6.31e-05 s⁻¹; the kon is 1.07e+07 M⁻¹ s⁻¹ and 1.09e+07 M⁻¹ s⁻¹. In test [3], the Kd is 5.77 pM, the “Ratio (variant antibody KD/burosumab KD)” value came out at 4, the “SA (surface activity)” value was found to be 89.5% and the koff stood at 6.31e-05 s⁻¹. Also, the kon in test [3] is 1.09e+07 M⁻¹ s⁻¹. For the same molecule, in test [4], the “KD ratio” value was 3 and binding was characterised by a dissociation constant (Kd) of 6.86 pM.

B3: UGX206 (antibody, human IgG1, kappa, V domains shown)
VH: QVQLVQSGAEVKKPGASVKVSCKASGYTFTNHYMHWVRQAPGQGLEWMGIINPISGSTENAQKFQGRVTMTRDTSTSTVYMELSSLRSEDTAVYYCARDIVDAFDFWGQGTMVTVSS
VL: AIQLTQSPSSLSASVGDRVTITCRASQGISSALVWYQQKPGKAPKLLIYDASSLESGVPSRFSGSGSGTDFTLTISSLQPEDFATYYCQQFNDEFTFGPGTKVDIKR
notes: also called HC:S59E, LC:Y94E; S59E/Y94E
Take B3: in test [1], the “KD ratio” value was 3 and the Kd worked out at 7.87 pM. In test [2], the Kd was 6.62 pM and 7.87 pM and 10.9 pM; the koff is 5.72e-05 s⁻¹ and 4.92e-05 s⁻¹ and 8.37e-05 s⁻¹; the on-rate constant (kon) is 8.64e+06 M⁻¹ s⁻¹ and 6.25e+06 M⁻¹ s⁻¹ and 7.69e+06 M⁻¹ s⁻¹. Also, in test [3], the Kd amounted to 7.87 pM, the “Ratio (variant antibody KD/burosumab KD)” value stood at 3, the “SA (surface activity)” value was determined as 108% and the koff came to 4.92e-05 s⁻¹. Moreover, the kon in test [3] is 6.25e+06 M⁻¹ s⁻¹. Further, in test [4], the “KD ratio” value stood at 3 and the Kd stood at 7.16 pM.

B4: UGX202 (antibody, human IgG1, kappa, V domains shown)
VH: QVQLVQSGAEVKKPGASVKVSCKASGYTFTNHYMHWVRQAPGQGLEWMGIINPISGSTENAQKFQGRVTMTRDTSTSTVYMELSSLRSEDTAVYYCARDIVDAFDFWGQGTMVTVSS
VL: AIQLTQSPSSLSASVGDRVTITCRASQGISSALVWYQQKPGKAPKLLIYDASSLESGVPSRFSGSGSGTDFTLTISSLQPEDFATYYCQQFYDYFTFGPGTKVDIKR
notes: also called HC:S59E, LC:N92Y; S59E/N92Y
With B4, in test [1], the “KD ratio” value amounted to 3 and the Kd worked out at 7.59 pM. Moreover, in test [2], the Kd is 7.53 pM and 7.59 pM and 8.07 pM; the “Ratio (variant antibody KD/burosumab KD)” value worked out at 3; the koff was 8.91e-05 s⁻¹ and 9.8e-05 s⁻¹ and 9.45e-05 s⁻¹; the kon is 1.2e+07 M⁻¹ s⁻¹ (2×) and 1.3e+07 M⁻¹ s⁻¹. In addition, in test [3], the Kd is 7.59 pM, the “Ratio (variant antibody KD/burosumab KD)” value came out at 3, the “SA (surface activity)” value amounted to 91.6% and the koff was determined as 9.8e-05 s⁻¹. In addition, the kon in test [3] turned out to be 1.29e+07 M⁻¹ s⁻¹. Also, in test [4], the “KD ratio” value worked out at 3 and the Kd amounted to 6.93 pM.

B5: UGX201 (antibody, human IgG1, kappa, V domains shown)
VH: QVQLVQSGAEVKKPGASVKVSCKASGYTFTNHYMHWVRQAPGQGLEWMGIINPISGSTENAQKFQGRVTMTRDTSTSTVYMELSSLRSEDTAVYYCARDIVDAFDFWGQGTMVTVSS
VL: AIQLTQSPSSLSASVGDRVTITCRASQGISSALVWYQQKPGKAPKLLIYDASSLESGVPSRFSGSGSGTDFTLTISSLQPEDFATYYCQQFFDYFTFGPGTKVDIKR
notes: also called HC:S59E, LC:N92F; S59E/N92F
On to B5, for which, in test [1], the “KD ratio” value is 4 and the Kd was 5.17 pM. Besides, in test [2], the Kd is 4.52 pM and 6.32 pM and 5.17 pM; the koff was 3.65e-05 s⁻¹ and 6.31e-05 s⁻¹ and 5.81e-05 s⁻¹; the kon was 8.08e+06 M⁻¹ s⁻¹ and 9.99e+06 M⁻¹ s⁻¹ and 1.12e+07 M⁻¹ s⁻¹. Moreover, in test [3], the Kd came to 5.17 pM, the “Ratio (variant antibody KD/burosumab KD)” value worked out at 4, the “SA (surface activity)” value worked out at 83.4% and the koff is 5.81e-05 s⁻¹. Also, the kon in test [3] worked out at 1.12e+07 M⁻¹ s⁻¹. Moreover, in test [4], the “KD ratio” value came to 2 and the Kd came out at 10.1 pM.

B6: UGX204 (antibody, human IgG1, kappa, V domains shown)
VH: QVQLVQSGAEVKKPGASVKVSCKASGYTFTNHYMHWVRQAPGQGLEWMGIINPISGSTENAQKFQGRVTMTRDTSTSTVYMELSSLRSEDTAVYYCARDIVDAFDFWGQGTMVTVSS
VL: AIQLTQSPSSLSASVGDRVTITCRASQGISSALVWYQQKPGKAPKLLIYDAESLESGVPSRFSGSGSGTDFTLTISSLQPEDFATYYCQQFNDYFTFGPGTKVDIKR
notes: also called HC:S59E, LC:S52E; S59E/S52E
Consider B6, for which, in test [1], the “KD ratio” value came out at 2 and the Kd worked out at 13.3 pM. Further, in test [2], the Kd is 13.3 pM and 14 pM and 18.3 pM; the koff is 0.000186 s⁻¹ and 0.000121 s⁻¹ and 0.000138 s⁻¹; the kon was 1.4e+07 M⁻¹ s⁻¹ and 8.64e+06 M⁻¹ s⁻¹ and 7.57e+06 M⁻¹ s⁻¹. In test [3], the Kd is 13.3 pM, the “Ratio (variant antibody KD/burosumab KD)” value came out at 2, the “SA (surface activity)” value was determined as 90.4% and the koff stood at 0.000186 s⁻¹. In addition, the kon in test [3] stood at 1.4e+07 M⁻¹ s⁻¹. Besides, in test [4], the “KD ratio” value came to 1 and the Kd was found to be 16 pM.

B7: UGX203 (antibody, human IgG1, kappa, V domains shown)
VH: QVQLVQSGAEVKKPGASVKVSCKASGYTFTNHYMHWVRQAPGQGLEWMGIINPISGSTENAQKFQGRVTMTRDTSTSTVYMELSSLRSEDTAVYYCARDIVDAFDFWGQGTMVTVSS
VL: AIQLTQSPSSLSASVGDRVTITCRASQGISSALVWYQQKPGKAPKLLIYDADSLESGVPSRFSGSGSGTDFTLTISSLQPEDFATYYCQQFNDYFTFGPGTKVDIKR
notes: also called HC:S59E, LC:S52D; S59E/S52D
For B7, in test [1], the “KD ratio” value was found to be 2 and the Kd was found to be 11.5 pM. Also, in test [2], the Kd was 11.3 pM and 12.4 pM and 11.5 pM; the “Ratio (variant antibody KD/burosumab KD)” value came to 2; the off-rate (koff) was 0.000145 s⁻¹ and 0.000134 s⁻¹; the kon is 1.3e+07 M⁻¹ s⁻¹ (2×) and 1.1e+07 M⁻¹ s⁻¹. In test [3], the equilibrium dissociation constant (Kd) was determined as 11.5 pM, the “Ratio (variant antibody KD/burosumab KD)” value came out at 2, the “SA (surface activity)” value was 81.4% and the off-rate (koff) was 0.000145 s⁻¹. Moreover, the on-rate constant (kon) in test [3] was 1.26e+07 M⁻¹ s⁻¹. Besides, in test [4], the “KD ratio” value was determined as 1 and the equilibrium dissociation constant (Kd) is 22.9 pM.

B8: UGX205 (antibody, human IgG1, kappa, V domains shown)
VH: QVQLVQSGAEVKKPGASVKVSCKASGYTFTNHYMHWVRQAPGQGLEWMGIINPISGSTENAQKFQGRVTMTRDTSTSTVYMELSSLRSEDTAVYYCARDIVDAFDFWGQGTMVTVSS
VL: AIQLTQSPSSLSASVGDRVTITCRASQGISSALVWYQQKPGKAPKLLIYDASSLESGVPSRFSGSGSGTDFTLTISSLQPEDFATYYCQQFNDDFTFGPGTKVDIKR
notes: also called HC:S59E, LC:Y94D; S59E/Y94D
For B8, in test [1], the “KD ratio” value amounted to 5 and the Kd amounted to 4.07 pM. In test [2], the Kd came out at 4.07 pM, the “Ratio (variant antibody KD/burosumab KD)” value amounted to 5, the “SA (surface activity)” value was 93.9% and the koff came to 6.25e-05 s⁻¹. For the same molecule, the kon in test [2] came out at 1.53e+07 M⁻¹ s⁻¹. Moreover, in test [3], the Kd worked out at 4.07 pM, the “Ratio (variant antibody KD/burosumab KD)” value amounted to 5, the “SA (surface activity)” value was found to be 93.9% and the koff amounted to 6.25e-05 s⁻¹. Moreover, the kon in test [3] turned out to be 1.53e+07 M⁻¹ s⁻¹. Also, in test [4], the “KD ratio” value worked out at 9 and the affinity, expressed as Kd, was 2.57 pM.
